Results taken from IntAct's records for PubMed 21258410.

B1: Mothers against decapentaplegic homolog 7 (Homo sapiens), O15105 (parent)
chain: MFRTKRSALVRRLWRSRAPGGEDEEEGAGGGGGGGELRGEGATDSRAHGAGGGGPGRAGCCLGKAVRGAKGHHHPHPPAAGAGAAGGAEADLKALTHSVLKKLKERQLELLLQAVESRGGTRTACLLLPGRLDCRLGPGAPAGAQPAQPPSSYSLPLLLCKVFRWPDLRHSSEVKRLCCCESYGKINPELVCCNPHHLSRLCELESPPPPYSRYPMDFLKPTADCPDAVPSSAETGGTNYLAPGGLSDSQLLLEPGDRSHWCVVAYWEEKTRVGRLYCVQEPSLDIFYDLPQGNGFCLGQLNSDNKSQLVQKVRSKIGCGIQLTREVDGVWVYNRSSYPIFIKSATLDNPDSRTLLVHKVFPGFSIKAFDYEKAYSLQRPNDHEFMQQPWTGFTVQISFVKGWGQCYTRQFISSCPCWLEVIFNSR

Variants of: B1
Conditions: with wwp2_human WWP2, O00308
Sequence of wwp2_human WWP2, O00308 (O00308 whole entry): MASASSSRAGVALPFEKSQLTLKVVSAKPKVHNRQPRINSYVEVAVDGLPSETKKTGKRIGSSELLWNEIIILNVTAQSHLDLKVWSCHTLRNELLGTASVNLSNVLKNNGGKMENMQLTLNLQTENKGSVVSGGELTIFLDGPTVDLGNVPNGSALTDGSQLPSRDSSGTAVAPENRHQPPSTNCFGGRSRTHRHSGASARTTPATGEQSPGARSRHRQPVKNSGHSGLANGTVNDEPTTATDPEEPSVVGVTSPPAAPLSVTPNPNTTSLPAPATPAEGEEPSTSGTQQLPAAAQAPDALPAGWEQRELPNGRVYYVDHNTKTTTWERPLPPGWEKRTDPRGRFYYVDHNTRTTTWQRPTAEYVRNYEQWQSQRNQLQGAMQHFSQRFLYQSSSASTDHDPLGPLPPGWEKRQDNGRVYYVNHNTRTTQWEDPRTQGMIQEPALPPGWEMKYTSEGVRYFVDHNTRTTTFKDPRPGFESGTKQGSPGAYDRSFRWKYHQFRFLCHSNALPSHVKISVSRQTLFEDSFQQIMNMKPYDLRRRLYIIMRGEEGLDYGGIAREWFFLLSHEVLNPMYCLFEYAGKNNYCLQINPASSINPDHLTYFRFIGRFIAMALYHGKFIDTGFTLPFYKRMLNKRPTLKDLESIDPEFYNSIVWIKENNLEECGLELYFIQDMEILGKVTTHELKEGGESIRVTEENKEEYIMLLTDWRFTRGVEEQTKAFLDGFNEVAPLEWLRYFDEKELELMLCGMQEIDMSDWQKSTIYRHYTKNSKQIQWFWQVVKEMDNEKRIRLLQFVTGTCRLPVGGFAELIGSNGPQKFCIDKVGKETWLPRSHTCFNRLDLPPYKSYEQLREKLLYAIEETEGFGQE

effect of a mutation on the interaction | Variant
disrupting interaction | MFRTKRSALVRRLWRSRAPGGEDEEEGAGGGGGGGELRGEGATDSRAHGAGGGGPGRAGCCLGKAVRGAKGHHHPHPPAAGAGAAGGAEADLKALTHSVLKKLKERQLELLLQAVESRGGTRTACLLLPGRLDCRLGPGAPAGAQPAQPPSSYSLPLLLCKVFRWPDLRHSSEVKRLCCCESYGKINPELVCCNPHHLSRLCELESPPPGSSRYPMDFLKPTADCPDAVPSSAETGGTNYLAPGGLSDSQLLLEPGDRSHWCVVAYWEEKTRVGRLYCVQEPSLDIFYDLPQGNGFCLGQLNSDNKSQLVQKVRSKIGCGIQLTREVDGVWVYNRSSYPIFIKSATLDNPDSRTLLVHKVFPGFSIKAFDYEKAYSLQRPNDHEFMQQPWTGFTVQISFVKGWGQCYTRQFISSCPCWLEVIFNSR [P210G;Y211S]
